Measurements reported in publication PMC11552376, “Specific binding between Arabidopsis thaliana phytochrome-interacting factor 3 (AtPIF3) bHLH and G-box originated prior to embryophyte emergence” (BMC Plant Biology, 2024).
Each block holds one molecule with its values, some of them ahead of it.

Key:
[1] = biological target: AtPIF3-bHLH K362A mutant (Arabidopsis thaliana) (UniProt O80536); assay: SEC; Superdex75 size exclusion column, UV trace at 280 nm, compared with molecular weight standards (albumin, carbonic anhydrase, cytochrome c, vitamin B12); gel filtration buffer of the methods: 30 mM HEPES, 500 mM NaCl, pH 7.4; oligomeric state of the protein with itself
AtPIF3-bHLH WT [2] = biological target: T1, AtPIF3-bHLH WT (Arabidopsis thaliana, UniProt O80536 340-397); assay: ITC; ITC: 30 mM HEPES, 125 mM NaCl, pH 7.5, 25 C, 400 uM protein into 40 uM DNA; fEMSA: 30 mM HEPES, 500 mM NaCl, pH 7.4, on ice 30 min, 3 uM probe, 10% native gel in 0.5x TBE at 4 C; conditions: protein: recombinant; tags: C-terminal His6; chain copies: 2; blunt
T1 sequence: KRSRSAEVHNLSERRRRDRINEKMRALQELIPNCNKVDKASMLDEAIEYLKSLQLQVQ

AtPIF3-bHLH WT [3] = biological target: T1, AtPIF3-bHLH WT; assay: EMSA; DNA:protein 1:1 to 1:20; ITC: 30 mM HEPES, 125 mM NaCl, pH 7.5, 25 C, 400 uM protein into 40 uM DNA; fEMSA: 30 mM HEPES, 500 mM NaCl, pH 7.4, on ice 30 min, 3 uM probe, 10% native gel in 0.5x TBE at 4 C; conditions: protein: recombinant; tags: C-terminal His6; chain copies: 2; label: 5' fluorescein; blunt
[4] = biological target: the molecule itself; assay: SEC; Superdex75 size exclusion column, UV trace at 280 nm, compared with molecular weight standards (albumin, carbonic anhydrase, cytochrome c, vitamin B12); gel filtration buffer of the methods: 30 mM HEPES, 500 mM NaCl, pH 7.4; oligomeric state of the protein with itself

stoichiometry N [1]: 2
Molecule: AtPIF3-bHLH K362A mutant (from UniProt O80536 343-392) (domain or fragment)

B1: G-box (PER2), ITC (dsDNA)
DNA 1: AGGAACACGTGACCC
DNA 2: GGGTCACGTGTTCCT
Kd (AtPIF3-bHLH WT [2]): 320 ± 14 nM

B2: pPIL1 G-box (dsDNA)
DNA 1: GCATTCACGTGAAGT
DNA 2: ACTTCACGTGAATGC
binding result (AtPIF3-bHLH WT [3]): binds

B3: AtPIF3-bHLH M399A mutant (domain or fragment, Arabidopsis thaliana, UniProt O80536 343-399, looked up)
chain: RSAEVHNLSERRRRDRINEKMRALQELIPNCNKVDKASMLDEAIEYLKSLQLQVQIA
notes: bHLH domain of PIF3 (AT1G09530), Arabidopsis thaliana, with M399A; Site-directed mutant of m1
stoichiometry N [4]: 2

B4: Arabidopsis thaliana PIF3-bHLH (AtPIF3-bHLH) recombinant protein, wild type (domain or fragment, UniProt O80536 340-399, looked up)
chain: KRSRSAEVHNLSERRRRDRINEKMRALQELIPNCNKVDKASMLDEAIEYLKSLQLQVQIM
notes: Cloned between NheI and XhoI of pET21b; also called PIF3-bHLH–His6; WT; source: E. coli Rosetta (DE3), pET21b, purified (HisTrap FF, Superdex75 gel filtration); not shown: His6, C-terminal, kept
stoichiometry N [4]: 2
